One assay addresses human Siglec-6-Fc (Homo sapiens, UniProt O43699). The assay can be described thus: SPR.
The next assay concerns the target human CD33-Fc (Homo sapiens, UniProt P20138). Nature of the assay: ELISA.
For another assay, the target named is human Siglec-8-Fc (Homo sapiens, UniProt Q9NYZ4). Nature of the assay: ELISA. For orientation: ELISA stands for enzyme-linked immunosorbent assay.
Another assay concerns the target human CD22-Fc (Homo sapiens, UniProt P20273). Nature of the assay: ELISA.

human CD22-Fc, sequence (P20273 20-687): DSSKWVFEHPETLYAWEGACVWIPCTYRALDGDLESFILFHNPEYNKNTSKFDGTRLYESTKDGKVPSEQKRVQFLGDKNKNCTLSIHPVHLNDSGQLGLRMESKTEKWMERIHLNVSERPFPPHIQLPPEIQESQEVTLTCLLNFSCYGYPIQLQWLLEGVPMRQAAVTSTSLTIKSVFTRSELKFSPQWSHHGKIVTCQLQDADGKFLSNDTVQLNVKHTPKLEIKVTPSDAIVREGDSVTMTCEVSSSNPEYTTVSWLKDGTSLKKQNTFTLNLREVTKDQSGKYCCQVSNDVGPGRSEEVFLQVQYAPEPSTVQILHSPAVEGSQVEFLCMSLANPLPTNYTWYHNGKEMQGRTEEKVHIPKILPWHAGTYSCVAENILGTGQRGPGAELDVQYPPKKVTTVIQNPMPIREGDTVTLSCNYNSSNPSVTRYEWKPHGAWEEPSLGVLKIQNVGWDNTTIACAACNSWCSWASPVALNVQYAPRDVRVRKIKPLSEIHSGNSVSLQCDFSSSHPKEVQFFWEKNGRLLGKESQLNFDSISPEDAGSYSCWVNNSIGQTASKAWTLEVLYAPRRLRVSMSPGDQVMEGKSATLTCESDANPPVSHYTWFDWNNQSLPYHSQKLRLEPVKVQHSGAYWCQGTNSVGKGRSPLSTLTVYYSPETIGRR
human CD33-Fc, sequence (P20138 18-259): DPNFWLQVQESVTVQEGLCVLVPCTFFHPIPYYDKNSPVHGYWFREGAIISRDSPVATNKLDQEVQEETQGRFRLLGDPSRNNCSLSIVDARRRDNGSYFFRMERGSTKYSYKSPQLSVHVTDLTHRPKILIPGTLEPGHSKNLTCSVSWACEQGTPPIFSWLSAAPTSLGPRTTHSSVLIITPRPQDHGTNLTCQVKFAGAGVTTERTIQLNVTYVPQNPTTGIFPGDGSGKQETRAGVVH
human Siglec-6-Fc, sequence (O43699 27-347): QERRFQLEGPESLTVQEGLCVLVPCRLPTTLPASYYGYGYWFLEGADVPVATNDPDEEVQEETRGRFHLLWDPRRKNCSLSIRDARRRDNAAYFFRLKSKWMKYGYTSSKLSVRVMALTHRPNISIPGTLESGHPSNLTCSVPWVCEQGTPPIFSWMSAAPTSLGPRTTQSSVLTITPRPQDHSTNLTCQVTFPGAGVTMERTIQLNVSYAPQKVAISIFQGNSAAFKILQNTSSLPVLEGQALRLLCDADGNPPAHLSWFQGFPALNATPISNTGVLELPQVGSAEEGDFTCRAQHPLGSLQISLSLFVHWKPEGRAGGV
human Siglec-8-Fc, sequence (Q9NYZ4 17-363): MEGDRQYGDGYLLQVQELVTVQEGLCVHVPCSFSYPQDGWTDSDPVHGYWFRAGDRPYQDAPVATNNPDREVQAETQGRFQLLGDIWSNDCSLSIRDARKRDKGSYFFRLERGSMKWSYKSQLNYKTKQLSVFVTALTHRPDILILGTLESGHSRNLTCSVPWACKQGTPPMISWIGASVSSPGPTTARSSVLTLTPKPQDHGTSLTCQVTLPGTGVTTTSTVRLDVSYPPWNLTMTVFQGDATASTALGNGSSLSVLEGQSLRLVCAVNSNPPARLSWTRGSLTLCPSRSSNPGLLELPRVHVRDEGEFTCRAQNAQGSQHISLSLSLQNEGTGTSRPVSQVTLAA

B1: JML-1 Fab (Fab, V domains shown)
VH: KVQLLESGGGLVQPGRSLRLSCAASGFTFDDYGMHWVRQAPGKGLEWVSGISWNSGSIGYADSVKGRFTISRDNSKNTLYLQMNSLRAEDTAVYYCARGGQTIDIWGQGTMVTVSS
VL: not shown
B1: in the assay with human Siglec-6-Fc, binding was characterised by a dissociation constant (Kd) of 2.8 nM.

B2: JML-1 IgG1 (antibody, V domains shown)
VH: KVQLLESGGGLVQPGRSLRLSCAASGFTFDDYGMHWVRQAPGKGLEWVSGISWNSGSIGYADSVKGRFTISRDNSKNTLYLQMNSLRAEDTAVYYCARGGQTIDIWGQGTMVTVSS
VL: not shown
Regarding B2, the binding result with human CD33-Fc, with human Siglec-8-Fc and in the assay with human CD22-Fc was “no binding (tested: 1 μg/mL)” throughout.
